In this test the target is E2F1 induced in SAOS-2-tet-E2F1 cells (human, UniProt Q01094 1-437). As to the kind of experiment: cell-based or functional assay.
Chain of E2F1 induced in SAOS-2-tet-E2F1 cells (Q01094 whole entry): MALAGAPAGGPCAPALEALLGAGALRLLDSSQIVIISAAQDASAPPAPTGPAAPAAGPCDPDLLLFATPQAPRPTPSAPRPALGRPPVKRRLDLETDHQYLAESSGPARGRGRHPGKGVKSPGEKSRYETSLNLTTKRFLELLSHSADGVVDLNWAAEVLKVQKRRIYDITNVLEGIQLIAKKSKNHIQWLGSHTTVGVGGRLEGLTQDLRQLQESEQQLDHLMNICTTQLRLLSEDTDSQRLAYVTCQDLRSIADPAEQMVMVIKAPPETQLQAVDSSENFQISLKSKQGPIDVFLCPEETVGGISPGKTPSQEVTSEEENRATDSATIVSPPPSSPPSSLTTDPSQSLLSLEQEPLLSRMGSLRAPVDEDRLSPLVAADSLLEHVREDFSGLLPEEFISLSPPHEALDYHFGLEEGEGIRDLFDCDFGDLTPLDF

B1: retinoblastoma protein RB (wild type, expressed in cells) (natural protein, human, UniProt P06400 1-928, looked up)
chain: MPPKTPRKTAATAAAAAAEPPAPPPPPPPEEDPEQDSGPEDLPLVRLEFEETEEPDFTALCQKLKIPDHVRERAWLTWEKVSSVDGVLGGYIQKKKELWGICIFIAAVDLDEMSFTFTELQKNIEISVHKFFNLLKEIDTSTKVDNAMSRLLKKYDVLFALFSKLERTCELIYLTQPSSSISTEINSALVLKVSWITFLLAKGEVLQMEDDLVISFQLMLCVLDYFIKLSPPMLLKEPYKTAVIPINGSPRTPRRGQNRSARIAKQLENDTRIIEVLCKEHECNIDEVKNVYFKNFIPFMNSLGLVTSNGLPEVENLSKRYEEIYLKNKDLDARLFLDHDKTLQTDSIDSFETQRTPRKSNLDEEVNVIPPHTPVRTVMNTIQQLMMILNSASDQPSENLISYFNNCTVNPKESILKRVKDIGYIFKEKFAKAVGQGCVEIGSQRYKLGVRLYYRVMESMLKSEEERLSIQNFSKLLNDNIFHMSLLACALEVVMATYSRSTSQNLDSGTDLSFPWILNVLNLKAFDFYKVIESFIKAEGNLTREMIKHLERCEHRIMESLAWLSDSPLFDLIKQSKDREGPTDHLESACPLNLPLQNNHTAADMYLSPVRSPKKKGSTTRVNSTANAETQATSAFQTQKPLKSTSLSLFYKKVYRLAYLRLNTLCERLLSEHPELEHIIWTLFQHTLQNEYELMRDRHLDQIMMCSMYGICKVKNIDLKFKIIVTAYKDLPHAVQETFKRVLIKEEEYDSIIVFYNSVFMQRLKTNILQYASTRPPTLSPIPHIPRSPYKFPSSPLRIPGGNIYISPLKSPYKISEGLPTPTKMTPRSRILVSIGESFGTSEKFQKINQMVCNSDRVLKRSAEGSNPPKPLKKLRFDIEGSDEADGSKHLPGESKFQQKLAEMTSTRTRMQKQKMNDSMDTSNKEEK
As for B1, the “Gal4-Luc luciferase reporter in SAOS-2 cells co-transfected with Gal4-E2F1 (Gal4 DNA-binding domain and transactivation domain of E2F1) and RB: reduction of Gal4-E2F1 activity” value turned out to be 3 fold.

Source of the values: article PMC1762320, “Separation of Anti-Proliferation and Anti-Apoptotic Functions of Retinoblastoma Protein through Targeted Mutations of Its A/B Domain” (PLoS ONE, 2006).
